B1: USP5-ZnF R222W (domain or fragment, human, UniProt P45974 169-289, looked up)
chain: WDGEVRQVSKHAFSLKQLDNPARIPPCGWKCSKCDMRENLWLNLTDGSILCGRWYFDGSGGNNHAVEHYRETGYPLAVKLGTITPDGADVYSYDEDDMVLDPSLAEHLSHFGIDMLKMQKT
notes: USP5, human, ZnF domain, residues 169-289, point mutant in pET-M; source: E. coli BL21, purified (Ni-NTA agarose, size-exclusion chromatography)
B2: USP5-ZnF Y223F (domain or fragment, human, UniProt P45974 169-289, looked up)
chain: WDGEVRQVSKHAFSLKQLDNPARIPPCGWKCSKCDMRENLWLNLTDGSILCGRRFFDGSGGNNHAVEHYRETGYPLAVKLGTITPDGADVYSYDEDDMVLDPSLAEHLSHFGIDMLKMQKT
notes: as for B1
B3: USP5-ZnF Y261F (domain or fragment, human, UniProt P45974 169-289, looked up)
chain: WDGEVRQVSKHAFSLKQLDNPARIPPCGWKCSKCDMRENLWLNLTDGSILCGRRYFDGSGGNNHAVEHYRETGYPLAVKLGTITPDGADVYSFDEDDMVLDPSLAEHLSHFGIDMLKMQKT
notes: as for B1
B4: ZnF domain of USP5 (USP5-ZnF, residues 169-289), wild type (domain or fragment, human, UniProt P45974 169-289, looked up)
chain: WDGEVRQVSKHAFSLKQLDNPARIPPCGWKCSKCDMRENLWLNLTDGSILCGRRYFDGSGGNNHAVEHYRETGYPLAVKLGTITPDGADVYSYDEDDMVLDPSLAEHLSHFGIDMLKMQKT
notes: USP5 (isopeptidase T, isoT), human, zinc finger (ZnF) domain, residues 169-289, cloned into pET-M; also called WT; source: E. coli BL21, purified (Ni-NTA agarose, size-exclusion chromatography)
B5: USP5-ZnF R221K (domain or fragment, human, UniProt P45974 169-289, looked up)
chain: WDGEVRQVSKHAFSLKQLDNPARIPPCGWKCSKCDMRENLWLNLTDGSILCGKRYFDGSGGNNHAVEHYRETGYPLAVKLGTITPDGADVYSYDEDDMVLDPSLAEHLSHFGIDMLKMQKT
notes: as for B1
B6: USP5-ZnF R222W/Y223F (domain or fragment, human, UniProt P45974 169-289, looked up)
chain: WDGEVRQVSKHAFSLKQLDNPARIPPCGWKCSKCDMRENLWLNLTDGSILCGRWFFDGSGGNNHAVEHYRETGYPLAVKLGTITPDGADVYSYDEDDMVLDPSLAEHLSHFGIDMLKMQKT
notes: as for B1
B7: tandem UBA domains of USP13 (USP13-UBA12, residues 652-776) (domain or fragment, human, UniProt Q92995 652-776, looked up)
chain: DIDESSVMQLAEMGFPLEACRKAVYFTGNMGAEVAFNWIIVHMEEPDFAEPLTMPGYGGAASAGASVFGASGLDNQPPEEIVAIITSMGFQRNQAIQALRATNNNLERALDWIFSHPEFEEDSDF
notes: USP13, human, tandem UBA domains (UBA1 and UBA2), residues 652-776, cloned into pET-32M; 15N-labelled in the NMR titrations; source: E. coli BL21, purified (Ni-NTA agarose, size-exclusion chromatography)
B8: USP13 (residues 21-863) (enzyme, human, UniProt Q92995 21-863, looked up)
chain: AGDIGELLVPHMPTIRVPRSGDRVYKNECAFSYDSPNSEGGLYVCMNTFLAFGREHVERHFRKTGQSVYMHLKRHVREKVRGASGGALPKRRNSKIFLDLDTDDDLNSDDYEYEDEAKLVIFPDHYEIALPNIEELPALVTIACDAVLSSKSPYRKQDPDTWENELPVSKYANNLTQLDNGVRIPPSGWKCARCDLRENLWLNLTDGSVLCGKWFFDSSGGNGHALEHYRDMGYPLAVKLGTITPDGADVYSFQEEEPVLDPHLAKHLAHFGIDMLHMHGTENGLQDNDIKLRVSEWEVIQESGTKLKPMYGPGYTGLKNLGNSCYLSSVMQAIFSIPEFQRAYVGNLPRIFDYSPLDPTQDFNTQMTKLGHGLLSGQYSKPPVKSELIEQVMKEEHKPQQNGISPRMFKAFVSKSHPEFSSNRQQDAQEFFLHLVNLVERNRIGSENPSDVFRFLVEERIQCCQTRKVRYTERVDYLMQLPVAMEAATNKDELIAYELTRREAEANRRPLPELVRAKIPFSACLQAFSEPENVDDFWSSALQAKSAGVKTSRFASFPEYLVVQIKKFTFGLDWVPKKFDVSIDMPDLLDINHLRARGLQPGEEELPDISPPIVIPDDSKDRLMNQLIDPSDIDESSVMQLAEMGFPLEACRKAVYFTGNMGAEVAFNWIIVHMEEPDFAEPLTMPGYGGAASAGASVFGASGLDNQPPEEIVAIITSMGFQRNQAIQALRATNNNLERALDWIFSHPEFEEDSDFVIEMENNANANIISEAKPEGPRVKDGSGTYELFAFISHMGTSTMSGHYICHIKKEGRWVIYNDHKVCASERPPKDLGYMYFYRRIPS
notes: Ubiquitin-specific protease 13 (USP13, isoT3), human, residues 21-863, cloned into pET-32M; The results call it full-length USP13; the methods give residues 21-863; also called full-length USP13; source: E. coli BL21, purified (Ni-NTA agarose, size-exclusion chromatography)

Key:
Conditions in all cases: both partners purified
ubiquitin (Ub) [1] = target: T1, ubiquitin (Ub) (UniProt P0CG48 1-76); assay: ITC; Ub (1 mM stock) injected into USP13-ZnF, USP5-ZnF or its mutants (50 µM), 25 injections of 8 µL; 50 mM Tris, 150 mM NaCl, pH 7.5, 1 mM DTT; 25°C
T1 construct: ubiquitin, free monomer; only a GST-fused Ub construct is named in the methods; also called free Ub; monoUb

ubiquitin (Ub) [2] = target: T1, ubiquitin (Ub); assay: NMR titration; 15N-labeled USP13-UBA12 or USP5-ZnF (~0.2 mM) titrated with Ub (or ISG15), 1H-15N HSQC spectra; 20 mM phosphate, 50 mM NaCl, pH 6.5
linear diUb = target: T2, linear diUb (UniProt P0CG48 1-76; P0CG48 1-76); assay: ITC; USP13-UBA12 (1.25 mM stock) injected into K63-, K48-, linear diUb (0.1 mM) or monoUb (0.2 mM), 25 injections of 1.5 µL; 50 mM Tris, 150 mM NaCl, pH 7.5; 25°C
T2 construct: ubiquitin, first unit of the linear (head-to-tail) dimer; ubiquitin, second unit of the linear (head-to-tail) dimer; also called linear linked diUb

GST-fused Ub = target: T3, GST-fused Ub (UniProt P0CG48 1-76); assay: pull-down; GST-fused Ub, ISG15, SUMO1 or SUMO2 loaded on glutathione agarose, USP13 or USP13-UBA12 (~100 µM) added; 1-hr incubation, washed three times, eluted by GSH buffer; SDS-PAGE with Coomassie blue staining
T3 construct: ubiquitin (Ub); cDNA inserted into pGEX-4T-3; also called GST-Ub; source: E. coli BL21, purified (glutathione agarose)

Binder	Kd (ubiquitin (Ub) [1])	further results
B1	9.1 µM	
B2	6.4 µM	
B3	88 µM	
B4	2.3 µM	
B5	100 µM	
B6	16 µM	
B7		binding result (ubiquitin (Ub) [2]): binds; binding result (linear diUb): binds; binding result (GST-fused Ub): binds
B8		binding result (GST-fused Ub): binds

— publication PMC3247260, “Domain Analysis Reveals That a Deubiquitinating Enzyme USP13 Performs Non-Activating Catalysis for Lys63-Linked Polyubiquitin” (PLoS ONE, 2011)
